From paper PMC12809912, “Structural and epitope characterization of anti-DEFA5 monoclonal antibodies clones 1A8 and 4F5 for inflammatory bowel disease subtype diagnostics” (International journal of biological macromolecules, 2025) come the findings set out here.

Ends that are not written are not given here. * marks the point of attachment. Biotin = O=C1N[C@H]2[C@H](CS[C@H]2CCCCC(=O)*)N1

Holding throughout (conditions): both partners purified
In assay [1] the target is T1, biotinylated DEFA5 epitope peptide Biotin-RATCYCRTGRCAT (Homo sapiens, cysteine pairing not given here).
T1 construct: human DEFA5 residues 62-74; source: synthetic peptide
T1 chain: Biotin-RATCYCRTGRCAT
In words: SPR; Biacore 8K, Biotin-RATCYCRTGRCAT immobilised on SA chip (~95 RU), antibodies injected 7.81-125 nM, 25 C, HBS-EP+, 30 uL/min, global fit to a 1:1 binding model.

For assay [2], the target named is T2, peptide No. 57 of the overlapping library, DEFA5 amino acids 61-75 (ARATCYCRTGRCATR) (Homo sapiens).
T2 construct: human DEFA5 amino acids 61-75; source: synthetic peptide (GenScript, >95 % purity)
T2 chain: ARATCYCRTGRCATR
In words: ELISA; indirect peptide ELISA: peptide coated at 5 ug/mL overnight at 4 C, antibody in PBST with 1 % BSA 2 h at 37 C, HRP goat anti-mouse IgG, OD 450 nm.

Assay [3] concerns the target T3, peptide variant of … with the N-terminal Ala61 deleted (Homo sapiens, UniProt Q01523).
T3 construct: also called N-terminal deletion mutant; source: synthetic peptide (GenScript, >95 % purity)
T3 chain: RATCYCRTGRCATR
The description is as above.

B1: mouse monoclonal antibody clone 1A8 (anti-DEFA5) (antibody, V domains shown)
VH: QVQLQQSGAELVRPGASVKMSCKALGYTFFDYEMHWMKQTPVYGLEWIGAIHPGSGDTAYNQKFKGKATLTADKSSNTAYMELSSLTSEDSAVYYCTREGTVVAPFDYWGQGTTLTVSS
VL: DVLMTQTPLSLPVSLGDQASISCRSSQSIVHSNGNTYLEWYLQKPGQSPKLLINKVSNRFSGVPDRFSGSGSGTDFTLKISRVEAEDLGVYYCFQGSYVPYTFGGGTKLEIK
notes: the print has a blank between NYKNT and PIMDTDG; Whole IgG, intact mass ~148.73 kDa; also called mAb 1A8; source: mouse hybridoma clone, purified monoclonal antibody
B1: in assay [1], the Kd was determined as 13.5 nM and the “stoichiometry N” value amounted to 1. Besides, the binding result in assay [2] is “binds”. Moreover, the binding result in assay [3] was “binds”.

B2: mouse monoclonal antibody clone 4F5 (anti-DEFA5) (antibody, V domains shown)
VH: QVQLQQSGAELVRPGASVKMSCKALGYTFFDYEMHWMKQTPVYGLEWIGAIHPGSGDTAYNQKFKGKATLTADKSSNTAYMELSSLTSEDSAVYYCTREGTVVAPFDYWGQGTTLTVSS
VL: DVLMTQTPLSLPVSLGDQASISCRSSQSIVHSNGNTYLEWYLQKPGQSPKLLINKVSNRFSGVPDRFSGSGSGTDFTLKISRVEAEDLGVYYCFQGSYVPYTFGGGTKLEIK
notes: the print has a blank between NYKNT and PIMDTDG; Whole IgG, intact mass ~148.65 kDa; also called mAb 4F5; source: mouse hybridoma clone, purified monoclonal antibody
As for B2, in assay [1], the Kd worked out at 15 nM and the “stoichiometry N” value is 1. Moreover, the binding result in assay [2] was “binds”. Also, the binding result in assay [3] is on record as “binds”.
